Measurements reported in article PMC4791427, “Structural dynamics of the yeast Shwachman-Diamond syndrome protein (Sdo1) on the ribosome and its implication in the 60S subunit maturation” (Protein & Cell, 2016).
Each block holds one molecule with its values, some of them ahead of it.

B3: uL16 (RPL10), in the 60S subunit (natural protein, S. cerevisiae (endogenous in S288C), UniProt P41805 1-221, looked up)
chain: MARRPARCYRYQKNKPYPKSRYNRAVPDSKIRIYDLGKKKATVDEFPLCVHLVSNELEQLSSEALEAARICANKYMTTVSGRDAFHLRVRVHPFHVLRINKMLSCAGADRLQQGMRGAWGKPHGLAARVDIGQIIFSVRTKDSNKDVVVEGLRRARYKFPGQQKIILSKKWGFTNLDRPEYLKKREAGEVKDDGAFVKFLSKKGSLENNIREFPEYFAAQA
notes: ribosomal protein uL16 (RPL10) of S. cerevisiae; met Sdo1p as a subunit of the purified 60S particle, not as an isolated protein; source: endogenous, part of the 60S subunit purified from S. cerevisiae S288C

Experiments:
[1] = target: T1, Sdo1p, full-length (1-250) (S. cerevisiae, UniProt Q07953 1-250); assay: BLI; Octet RED96; Sdo1p variants (2 μg/mL) immobilised on Anti-Penta-HIS biosensors; 60S subunit 1.75-48 nmol/L in 25 mmol/L Hepes-KOH pH 7.5, 100 mmol/L KCl, 2.5 mmol/L MgCl2; association and dissociation 240 s each
T1 construct: Sdo1p, the SBDS homologue of S. cerevisiae, full-length construct, residues 1-250; cloned into pET21b; also called Sdo1p-FL; FL; source: E. coli BL21 (DE3), purified (Ni-NTA, gel filtration); not shown: His6, C-terminal, kept
T1 sequence (looked up): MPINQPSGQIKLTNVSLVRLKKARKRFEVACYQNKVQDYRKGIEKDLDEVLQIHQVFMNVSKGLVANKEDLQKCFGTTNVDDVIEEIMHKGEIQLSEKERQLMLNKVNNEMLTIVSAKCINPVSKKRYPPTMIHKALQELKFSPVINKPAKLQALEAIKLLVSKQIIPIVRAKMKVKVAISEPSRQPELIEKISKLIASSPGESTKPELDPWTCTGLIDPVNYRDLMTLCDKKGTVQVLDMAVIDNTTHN

[2] = target: Sdo1p domain I-II (1-169) (S. cerevisiae) (UniProt Q07953); assay: as above
[3] = target: The truncated domain I, II and II-III; assay: as above
[4] = target: mature 60S ribosomal subunit of S. cerevisiae (S. cerevisiae (endogenous in S288C)) (UniProt P41805); assay: cryo-EM structure; 60S subunit (100 nmol/L) with 20-fold (dimers, 14 Å map) or 10-fold (monomers, 9 Å map) excess of full-length Sdo1p, 30°C 15 min, without crosslinking
[5] = target: B3; assay: cross-linking; CX-MS: 50 pmol 60S with full-length or truncated Sdo1p at 1:20, 25 mmol/L Hepes-KOH pH 7.5, 100 mmol/L KCl, 2.5 mmol/L MgCl2; DSS or BS3, room temperature 1 h; trypsin, LC-MS/MS, pLink FDR <5%; conditions: both partners purified
[6] = target: T1, Sdo1p, full-length (1-250); assay: as above; conditions: both partners purified

B1: Sdo1p, full-length (1-250) (natural protein)
chain: MPINQPSGQIKLTNVSLVRLKKARKRFEVACYQNKVQDYRKGIEKDLDEVLQIHQVFMNVSKGLVANKEDLQKCFGTTNVDDVIEEIMHKGEIQLSEKERQLMLNKVNNEMLTIVSAKCINPVSKKRYPPTMIHKALQELKFSPVINKPAKLQALEAIKLLVSKQIIPIVRAKMKVKVAISEPSRQPELIEKISKLIASSPGESTKPELDPWTCTGLIDPVNYRDLMTLCDKKGTVQVLDMAVIDNTTHN
stoichiometry N [4]: 1

Molecule: B3
binding result [6]: binds

The next lines start with the values.

Kd [1]: 18 nM | Kd [2]: 15 nM | Kd [3]: 25 to 40 nM
Molecule: mature 60S ribosomal subunit of S. cerevisiae (from UniProt P41805 1-221) (complex)

binding result [5]: binds
B2: Sdo1p domain I-II (1-169) (domain or fragment, S. cerevisiae, UniProt Q07953 1-169, looked up)
chain: MPINQPSGQIKLTNVSLVRLKKARKRFEVACYQNKVQDYRKGIEKDLDEVLQIHQVFMNVSKGLVANKEDLQKCFGTTNVDDVIEEIMHKGEIQLSEKERQLMLNKVNNEMLTIVSAKCINPVSKKRYPPTMIHKALQELKFSPVINKPAKLQALEAIKLLVSKQIIPI
notes: Sdo1p of S. cerevisiae, domains I-II, residues 1-169; cloned into pET21b; also called domains I-II; Sdo1p-I-II; source: E. coli BL21 (DE3), purified (Ni-NTA, gel filtration); not shown: His6, C-terminal, kept
